Biological target: IL-17RA and IL-17RC co-expressed on 293F-IL-17RA-IL-17Rc-ACT1-NFκB-Luc reporter cells (Homo sapiens (Human)) (UniProt Q96F46)
Assay: FACS, IL-17A recombinant protein on 293F-IL-17RA-IL-17Rc-ACT1-NFκB-Luc cells

Sequence of UniProt Q96F46 (Q96F46 33-866 limits assumed, chain 1 of 2): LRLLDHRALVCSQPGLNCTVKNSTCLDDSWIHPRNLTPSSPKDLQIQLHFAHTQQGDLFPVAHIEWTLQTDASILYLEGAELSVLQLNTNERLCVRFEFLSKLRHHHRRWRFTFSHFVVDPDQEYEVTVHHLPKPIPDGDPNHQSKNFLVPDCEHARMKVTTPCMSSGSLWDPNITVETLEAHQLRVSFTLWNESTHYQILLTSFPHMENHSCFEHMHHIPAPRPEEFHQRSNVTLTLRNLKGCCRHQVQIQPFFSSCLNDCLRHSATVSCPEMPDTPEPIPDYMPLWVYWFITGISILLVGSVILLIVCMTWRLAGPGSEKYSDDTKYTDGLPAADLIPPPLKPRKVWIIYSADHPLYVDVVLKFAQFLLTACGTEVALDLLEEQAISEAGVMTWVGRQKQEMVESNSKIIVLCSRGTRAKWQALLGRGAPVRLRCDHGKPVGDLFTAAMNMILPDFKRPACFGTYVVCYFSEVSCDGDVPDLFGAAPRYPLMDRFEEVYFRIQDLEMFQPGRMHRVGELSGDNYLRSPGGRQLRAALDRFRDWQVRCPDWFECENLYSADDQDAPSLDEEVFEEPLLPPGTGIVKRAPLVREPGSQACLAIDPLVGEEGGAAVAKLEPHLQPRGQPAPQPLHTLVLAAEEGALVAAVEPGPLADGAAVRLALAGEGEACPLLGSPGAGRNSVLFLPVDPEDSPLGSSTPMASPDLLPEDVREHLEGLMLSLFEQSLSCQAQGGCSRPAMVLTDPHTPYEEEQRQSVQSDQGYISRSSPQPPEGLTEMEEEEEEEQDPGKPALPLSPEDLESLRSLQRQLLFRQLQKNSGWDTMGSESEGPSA
Sequence of UniProt Q96F46 (chain, as listed by the source limits assumed, chain 2 of 2): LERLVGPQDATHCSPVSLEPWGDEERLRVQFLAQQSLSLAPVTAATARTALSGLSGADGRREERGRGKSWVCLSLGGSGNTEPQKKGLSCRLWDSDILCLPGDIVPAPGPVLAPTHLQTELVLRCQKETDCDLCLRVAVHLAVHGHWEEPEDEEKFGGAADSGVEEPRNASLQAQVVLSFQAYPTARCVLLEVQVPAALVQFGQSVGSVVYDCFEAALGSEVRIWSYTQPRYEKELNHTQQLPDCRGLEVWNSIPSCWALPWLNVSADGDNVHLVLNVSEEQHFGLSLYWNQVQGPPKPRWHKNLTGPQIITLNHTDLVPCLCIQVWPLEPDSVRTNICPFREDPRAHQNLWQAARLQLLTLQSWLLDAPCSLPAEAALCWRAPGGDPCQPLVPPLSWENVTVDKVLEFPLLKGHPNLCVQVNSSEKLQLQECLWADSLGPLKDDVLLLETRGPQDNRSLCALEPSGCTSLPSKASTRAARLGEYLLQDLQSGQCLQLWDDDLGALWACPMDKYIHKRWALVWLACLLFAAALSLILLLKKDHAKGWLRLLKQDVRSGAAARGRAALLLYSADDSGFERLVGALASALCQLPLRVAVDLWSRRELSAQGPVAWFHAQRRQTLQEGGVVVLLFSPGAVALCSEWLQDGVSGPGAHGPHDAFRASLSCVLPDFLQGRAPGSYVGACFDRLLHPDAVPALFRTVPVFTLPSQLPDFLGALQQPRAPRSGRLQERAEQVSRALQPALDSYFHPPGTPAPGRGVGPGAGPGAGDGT

Human IL-17A重组蛋白 (C-terminal 6xHis) (from UniProt Q16552 24-155) (ligand)
阳性率: > 90 %

From patent CN117843776A
